The RNAGym collection of RNA variant scans (doi:10.7554/elife.90254)

B1: LINE1-full (parent)
chain: UACGUAGGUGGUUUUCCCCUGAUAGUGCUAAGGGGGCCUGGAAGUUUGGACUGGGCAGAGCUCAACACAGCGUGGCAAAGUGGCUGUGGCUAGACUGCCUCUCUGGAUUCCUCGUCACUCAGCAGGGCAUCUCUGAGAGAAAUGCC

Variants of: B1
Test: self-cleavage, relative activity (ratio to wild type); higher = more cleavage; in vitro, sequencing; the parent is a self-cleaving ribozyme

Variant | self-cleavage
U9A A124U | 1.2
U9A A129U | 1.43
U9A A136G | 1.29
U9A A138G | 0.87
U9A A140C | 1.06
U9A A140G | 1.11
U9A A141G | 1.36
U9A A142G | 1.13
U9A C16U | 0.45
U9A C18A | 1.09
U9A C18G | 1.1
U9A C37U | 0.63
U9A C51A | 1.47
U9A C61U | 0.02
U9A C71A | 0.6
U9A C90A | 0.04
U9A C90U | 0
U9A C99A | 0.67
U9A C113A | 0.39
U9A C113U | 0.97
U9A C128U | 0.9
U9A C145U | 1.64
U9A G27A | 0.81
U9A G32A | 1.73

Variant | self-cleavage
U9A G35A | 1.09
U9A G35C | 1.87
U9A G36U | 0.71
U9A G53A | 1.53
U9A G55C | 0.09
U9A G70C | 0.3
U9A G72A | 0.81
U9A G74A | 1.09
U9A G80A | 1.92
U9A G89A | 0.1
U9A G93A | 0.06
U9A G93U | 0.3
U9A G105A | 1.35
U9A G114C | 0.61
U9A G126A | 0.82
U9A G127U | 1.92
U9A U12C | 0.86
U9A U12G | 0.67
U9A U13A | 1.12
U9A U13C | 0.81
U9A U14A | 1.03
U9A U15A | 1.07
U9A U20A | 1.41
U9A U23A | 0.36

Variant | self-cleavage
U9A U26A | 0.7
U9A U26C | 1.24
U9A U39A | 1.16
U9A U39C | 0.25
U9A U45C | 0.91
U9A U46C | 0.98
U9A U47C | 1.37
U9A U52A | 0.9
U9A U52C | 0.74
U9A U62A | 0.12
U9A U73G | 1.29
U9A U81C | 1.1
U9A U85A | 0.09
U9A U85C | 0.54
U9A U87G | 0.23
U9A U96A | 0.08
U9A U100C | 1.18
U9A U102C | 1.03
U9A U104C | 1.17
U9A U108C | 0.9
U9A U109C | 1.34
U9A U112A | 0.82
U9A U112C | 1.32
U9A U115C | 1.55

Variant | self-cleavage
U9A U132C | 1.04
U9A U134C | 1.4
U9A U143A | 1.34
U9A U143C | 0.94
U9A U143G | 1.98
U9C A22U | 0.89
U9C A42G | 1.32
U9C A43G | 1.12
U9C A50C | 1.25
U9C A57G | 0.96
U9C A59U | 0.72
U9C A64G | 0.45
U9C A65U | 0.32
U9C A67G | 0.48
U9C A67U | 0.26
U9C A69G | 0.83
U9C A77G | 1.92
U9C A78G | 1.19
U9C A94C | 0.11
U9C A94G | 0.66
U9C A94U | 0.21
U9C A107G | 1.61
U9C A107U | 1.59
U9C A117G | 1.53

Variant | self-cleavage
U9C A117U | 1.62
U9C A121U | 1.32
U9C A124U | 1.26
U9C A136G | 1.75
U9C A136U | 1.3
U9C A138G | 1.21
U9C A141G | 1.36
U9C A141U | 1.53
U9C A142C | 0.83
U9C A142G | 1.24
U9C A142U | 1.38
U9C C16A | 0.59
U9C C28A | 1.16
U9C C38U | 1.29
U9C C61U | 0.08
U9C C66U | 0.08
U9C C76G | 2.04
U9C C84A | 0.26
U9C C95G | 0.12
U9C C98G | 0.22
U9C C103U | 1.4
U9C C113G | 1.75
U9C C128U | 1.52
U9C C145A | 1.3

Variant | self-cleavage
U9C C146U | 1.1
U9C G21A | 1.32
U9C G27A | 1.16
U9C G34A | 1.05
U9C G34C | 0.8
U9C G35C | 1.43
U9C G36U | 2.08
U9C G41A | 1.06
U9C G48C | 1.09
U9C G82U | 1.34
U9C G89C | 0.05
U9C G89U | 0.08
U9C G93A | 0.05
U9C G97A | 0.33
U9C G106A | 1.71
U9C G122A | 1.43
U9C G125A | 1.8
U9C G126U | 1.68
U9C G137A | 1.15
U9C U12A | 1.51
U9C U12C | 1.13
U9C U12G | 1.15
U9C U14A | 1.17
U9C U14G | 2.09

Variant | self-cleavage
U9C U20A | 0.95
U9C U23C | 1.68
U9C U26C | 1.35
U9C U29A | 1.1
U9C U39A | 1.17
U9C U39C | 1.14
U9C U45C | 1.27
U9C U46A | 1.18
U9C U46C | 1.08
U9C U52A | 2.31
U9C U52C | 1.36
U9C U62A | 0.14
U9C U81G | 1.31
U9C U85G | 0.27
U9C U87A | 0.2
U9C U87C | 0.42
U9C U87G | 0.69
U9C U96A | 0.15
U9C U96C | 0.14
U9C U102A | 1.11
U9C U102C | 1.3
U9C U104C | 1.82
U9C U112A | 1.46
